What was measured:
[1] = High-pressure REES measurements; assay type: physicochemical; settings: buffered solution, any pressure
Description: The CSM value is rather larger than reported for the denaturation study above (FIGS. 3A and 3B) and this is due to a different spectral window used to calculate the CSM for the pressure studies. This was necessary due to the optical setup of the pressure cell. […] Fitting the REES data to Eq 4 gives the pressure dependence of A, shown in FIG. 4D as the change in the fraction of A across the pressure range. […] The pressure dependence data can be adequately fit to a simple, phenomenological model that implies a single transition between two states with changing hydrostatic pressure as used previously:
Where Rp=83.13 cm3 mol^−1 bar K^−1 when the pressure, p, is measured in bar, K0 is the equilibrium constant for the change in the relative population of the ith conformational state represented by the magnitude of A from Eq 4, extrapolated to 0 bar and ΔVA is the apparent difference in the volume associated with this equilibrium transition.
The difference in sign is simply attributable to relative change in direction of the specific to signal. What is important is that the magnitude of ΔV is much larger for the REES effect compared to W6 emission. Indeed, this magnitude of pressure dependence is more consistent with global metrics of NEMO conformational change previously measured using the pressure dependence of 8-anilino naphthalene sulfonate (ANS) emission. The REES signal may therefore be reflective of the broader equilibrium of NEMO conformational states at sites distal to W6. […] The key finding from the pressure data in the present context is that the REES effect itself is pressure-dependent with the magnitude of A increasing with pressure.
An ISS high-pressure cell (ISS, Champaign, UL, USA), fitted with a custom fiber optic mounting to the fluorimeter and connected to a circulating water bath for temperature regulation was used to record all high-pressure measurements.
Where fi is the measured fluorescence intensity and λem is the emission wavelength. The importance of using a consistent wavelength range when reporting CSM data is stressed, as the magnitude will be dependent on the wavelength range chosen.

[2] = biological target: T1, NEMO (Homo sapiens, UniProt Q9Y6K9); test: REES of NEMO W6 on ligand binding (peptides, poly-ubiquitin); settings: for R (fit to Eq 1), relative / A (REES magnitude, fit to Eq 2): relative to NEMO alone, binding partners; for A (REES magnitude, fit to Eq 2): peptides 1 mM, poly-ubiquitin 1 μM
T1 construct: Full length human NEMO was expressed and purified essentially as described previously [23]; made in house
Description: Having established that the REES effect, specifically the use of Eq 2, can be used as a proxy for the protein free energy landscape, how the NEMO REES signal varies upon ligand binding is considered. […] The REES data for NEMO ligand bound states are shown in FIGS. 6A and 6B with the solid lines representing the fit to Eq 2. The resulting extracted values of A from Eq 2 are given in Table 1 and also as an inset bar chart in FIG. 6. For clarity, the relative change in R and A compared to NEMO alone is reported, extracted from Eq 1 and 2, respectively.
The IKKβ peptide (termed the NEMO binding domain, NBD) contains two Trp residues and so is not suitable for the present study as the signal from the peptide would confound the analysis of the single NEMO Trp. […] From Table 1 and FIG. 5A there is a significant difference in the magnitude of A depending on the ligand bound form of NEMO. […] If the ligand binding data shown in FIG. 5A is fitted to the simple linear function described by Eq 1 a different trend is found. […] Instead the major difference to is in the curvature of the data and this is captured by the use of Eq 2.
NEMO comprises a specific domain that non-covalently binds poly-ubiquitin. […] Poly-ubiquitin is found as a range of chain-lengths in the cell and evidence has previously been provided from ANS binding studies that NEMO undergoes different conformational change depending on the chain-length of non-covalently bound poly-ubiquitin [23]. The REES effect on NEMO W6 is explored in the presence of both short (4-mer; Ub4) and long (10-mer; Ub10) poly-ubiquitin chains, as shown in FIG. 6B. From the resulting values of A, given in Table 1, Ub4 binding gives a decrease in A (A=0.77±0.05), but Ub10 gives an increase (A=1.23±0.1). […] The absolute magnitude of the REES difference is small.
Full length human NEMO was expressed and purified essentially as described previously. Purified protein was dialysed extensively into a buffer comprising 50 mM Tris-Cl pH 8.0, 50 mM NaCl and 5 mM DTT. All measurements were made in this buffer unless otherwise stated. IKK-β and IκBα peptides were commercially synthesised by Genscript, having a purity of >98% and are of the sequence […] and […], respectively. The IKK-β peptide was modified such that the two native Trp residues were replaced with Phe residues. M1-linked poly-ubiquitin was purchased from Viva Bioscience. Staphylococcus aureus immune modulator protein fragment Sbi-III-IV K173A was expressed and purified essentially as described previously. Protein concentration used was between 1 and 5 μM. Peptide concentrations were 1 mM and poly-ubiquitin concentrations were 1 μM.
All fluorescence measurements were performed using a Perkin Elmer LS50B Luminescence Spectrometer (Perkin Elmer, Waltham, Mass., USA) connected to a circulating water bath for temperature regulation (±1° C.). Samples were incubated for 5 minutes at the given conditions prior to recording measurements. Measurements were performed at 10° C., unless otherwise stated. Excitation and emission slit widths were 5 nm except for pressure experiments where they were 10 nm. The larger slit width was required due to the optical setup of the pressure cell to ensure a […] signal-to-noise for the W6 emission signal. For NEMO red edge excitation scans, tryptophan emission was monitored from 315 to 550 nm. […] For red edge excitation scans, tyrosine emission was monitored from 294 to 400 nm, with the excitation wavelength set at 274 nm. […]

[3] = REES of NEMO W6 Trp emission: native, denatured, crowded; assay type: physicochemical; settings: for A (REES magnitude, fit to Eq 2) / R (fit to Eq 1), relative: relative to NEMO alone; for A (REES magnitude, fit to Eq 2) / R (fit to Eq 1), relative / R0: native; for A (REES magnitude, fit to Eq 2): denatured (6M guanidine), crowded (Sbi 20 mg/ml); for R (fit to Eq 1), relative / R0: denatured, crowded; for R0: y-intercept of Eq 2 fit
Description: Typically the magnitude of the steady-state REES phenomenon is reported as the simple difference in CSM or ΔλEm^max. From FIG. 1, it is observed that a significant red shift in the emission spectra, with an increase in CSM of 17.7 nm and an increase in ΔλEm^max of 15 nm from λex 292-310 nm. Essentially the data are treated by the linear function: CSM=Rλex+CSM0 Eq 1.
Where R is the REES magnitude expressed as the change in CSM per nm of the excitation wavelength, λex.
The REES data in FIG. 2 can be best represented by a Gaussian probability distribution of the form:
Where A is the area, w is the full width at half-maximal (fwhm), m is the mid-point and R0 is the y-intercept and m=λREES^max, where λREES^max is the excitation wavelength that gives the largest change in the emission peak wavelength. The data in FIG. 2 are fit to Eq 2 and illustrate the low energy excitation at the red edge of the protein absorption spectrum. The fit of Eq 2 to the experimental data is excellent and captures the expected relationship described above.
In this case, the solvent relaxation will be very rapid and no REES effect observed, effectively because there is one discrete solvation state (fully solvated). NEMO is incubated in 6M guanidine to denature the protein and the corresponding change in the center of spectral mass (CSM) versus λex is shown in FIG. 3. The use of CSM is favoured instead of the magnitude of ΔλEm^max as this metric gives a more robust REES signal and the magnitude of may be highly error prone. However the results using ΔλEm^max are essentially the same. A decrease and red-shift in Trp emission is typically grossly correlated with denaturation of proteins. […] Note that this is not the REES effect but reflective of the solvent exposure of NEMO W6 on denaturation. […] Fitting to Eq 2 also gives a large decrease in the REES effect, A=0.37±0.4. The relative change in the REES effect is similar using either approach and this indicates strongly that a fitting approach using Eq 2 is robust.
Macromolecular crowding is a key feature of the intracellular milieu arising from the very high concentrations of other species in the cytosol. Crowding reduces the available solvent for other molecules in solution through the excluded volume effect, which effectively increase the concentration of, for example, protein and restricts the accessible conformational states through hard-core repulsions between the crowding agent and the protein. Macromolecular crowding can alter protein conformation, typically inducing folding and stabilization. Crowding therefore potentially provides a means to explore the contrasting physical effect of denaturation on the REES effect, where the protein is more folded/stabilized. A protein has been used as the crowding agent, Sbi (reported above), instead of a synthetic crowding agent since protein is much more consistent with the intracellular environment. […] Incubating NEMO with a high concentration of Sbi (20 mg/ml) gives a dramatic change to the both the absolute Trp emission and also the REES effect as shown in FIG. 3. […] Intriguingly, the REES effect is much larger in the crowded environment giving a relative increase in A of 2.24±0.51. […] This is consistent with the putative molecular model of NEMO activity that is based on allosterically regulated NEMO conformational change. Below, the potential mechanistic role of an increased number of available conformational states with respect to ligand interactions is described.
Full length human NEMO was expressed and purified essentially as described previously. Purified protein was dialysed extensively into a buffer comprising 50 mM Tris-Cl pH 8.0, 50 mM NaCl and 5 mM DTT. All measurements were made in this buffer unless otherwise stated. IKK-β and IκBα peptides were commercially synthesised by Genscript, having a purity of >98% and are of the sequence […] and […], respectively. […]

[4] = QUBES of mAb unfolding in urea; assay type: physicochemical
Description: Changes in protein structure are accompanied by a change in the equilibrium of conformational states. It has been previously found with a model system, a ‘hub’ protein (described above), that by quantitating the curvature in REES data it is possible to capture information on unfolded states and ligand induced conformational change. It was explored whether the sensitive detection of differences in REES data could be useful for detecting subtle changes in protein structure in mAbs. It is tested whether the QUBES data can be used to identify unfolding and aggregation of the mAbs since these are key issues facing the development of biopharmaceuticals. […] The formation of soluble aggregates is monitored in the thermally denatured mAbs by dynamic light scattering (DLS), shown in FIG. 19.
The observed variance in the QUBES values for the denatured mAbs (FIG. 14A) may reflect the differing extent of unfolding or aggregation for each of the samples and the specific nature of the unfolded or aggregated states. […] The data therefore illustrate that these metrics ignore early stage changes to protein structure that are not captured by simple steady-state fluorescence emission measurements.
All fluorescence measurements were performed using a Perkin Elmer LS50B Luminescence Spectrometer (Perkin Elmer, Waltham, Mass., USA) connected to a circulating water bath for temperature regulation (±1° C.). […]

T1 sequence (Q9Y6K9 whole entry): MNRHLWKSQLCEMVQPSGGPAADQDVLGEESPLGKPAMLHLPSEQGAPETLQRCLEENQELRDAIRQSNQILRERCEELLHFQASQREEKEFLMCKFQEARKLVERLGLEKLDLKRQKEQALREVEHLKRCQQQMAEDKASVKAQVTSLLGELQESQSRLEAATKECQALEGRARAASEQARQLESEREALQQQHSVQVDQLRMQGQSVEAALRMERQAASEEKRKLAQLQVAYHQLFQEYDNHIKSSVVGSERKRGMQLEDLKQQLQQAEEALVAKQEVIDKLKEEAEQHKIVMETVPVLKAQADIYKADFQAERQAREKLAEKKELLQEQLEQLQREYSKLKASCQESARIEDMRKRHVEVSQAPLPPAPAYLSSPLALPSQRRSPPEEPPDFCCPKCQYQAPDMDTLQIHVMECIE

In the case of `N[C@@H](Cc1c[nH]c2ccccc12)C(=O)O` [free Trp, tryptophan, reference compound], the “REES effect under pressure (in words)” value [1] is reported as “No REES effect is observed”.
For “IκBα peptide: peptide mimic of IκBα, sequence DDRHDSGLDSMKD”, the “R (fit to Eq 1), relative” value [2] was 1.35±0.1 and the “A (REES magnitude, fit to Eq 2)” value [2] was 0.85±0.04.
With “NBD-Phe: IKK-β peptide (NEMO binding domain), two Trp replaced with Phe, sequence TALDFSFLQTE” the “decrease in W6 emission on binding” value [2] was roughly 50%, the “R (fit to Eq 1), relative” value [2] was 0.98±0.1 and the “A (REES magnitude, fit to Eq 2)” value [2] was 1.33±0.3.
In the case of “NEMO + Sbi: NEMO incubated with a high concentration of Sbi (20 mg/ml) as crowding agent”, the “Trp emission intensity compared to NEMO in the absence of Sbi” value ([3]; Sbi 20 mg/ml) is reported as roughly 1.4 times, the “A (REES magnitude, fit to Eq 2)” value [3] is reported as 2.24±0.51 and the “R (fit to Eq 1), relative” value [3] is reported as 1.07 ± 0.12. The R0 [3] was 360.5±0.45 nm.
For “NEMOdenat: NEMO incubated in 6M guanidine to denature the protein”, the “REES effect (in words)” value [3] was “dramatically reduced REES effect”, the “R (fit to Eq 1), change in CSM per nm of λex” value ([3]; absolute value) was 0.22±0.02 and the “A (REES magnitude, fit to Eq 2)” value [3] was 0.37 ± 0.4. The “A (REES magnitude, fit to Eq 2)” value ([3]; listed as Denatured NEMO) was 0.37±0.4, the “R (fit to Eq 1), relative” value [3] was 0.21 ± 0.01 and the “R (fit to Eq 1), relative” value ([3]; listed as Denatured NEMO) was 0.23±0.1. The R0 [3] was 375.0 ± 0.5 nm, the R0 ([3]; listed as Denatured NEMO) was 375±0.5 nm and the “increase in CSM (red shift)” value ([3]; λex 292-310 nm) was 4 nm.
In the case of Tocilizumab: humanised therapeutic mAb, the “urea concentration at which a significant increase in CSM0 is observed” value [4] is reported as 7 M and the “QUBES value shift on unfolding” value ([4]; urea) is reported as “larger R and smaller A value”.
